Results on 6 molecules are retold here after patent publication US20260207798A1, “CYCLIC PEPTIDES AS PET IMAGING AGENTS OF GRANZYME B” (priority 2022, published 2026).

Data set [1] deals with human Granzyme B (hGranzyme B) (Homo sapiens, UniProt P10144). As to the kind of experiment: Surface plasmon resonance (SPR) binding kinetics to hGranzyme B. To be noted: 25° C., 1:1 binding model, KD=kd/ka; read-out: Granzyme B SPR Kd. In outline: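 Biotinylated hGranzyme B captured on streptavidin chip (~1100 RU), reference-spot subtracted. Single-cycle kinetics at 25 °C in HBS-EP+ with 2% DMSO: five 3-fold peptide concentrations, 0.01–1 µM, 120 s association, 900 s dissociation. Fit to a 1:1 model for ka and kd, with KD = kd/ka.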
On the technique in general: SPR reads the build-up and loss of mass on a sensor chip optically.

In data set [2] the target is T1, Human Granzyme B (Homo sapiens, UniProt P10144). The data set is described as follows: Granzyme B biochemical inhibition assay (fluorescence). To be noted: 8 nM granzyme B; values below 8 nM reported as <8 nM. The method, then:
Compounds to be tested as inhibitors were manually prepared in a 2-fold serial dilutions in DMSO, spanning 200 uM to 0.39 uM in a Labcyte Echo qualified low dead volume 384-well plate. Then an ECHO acoustic liquid handler was used to dispense 125 nL of each compound from 384-well plate into a PerkinElmer Proxiplate-384 Plus F assay plate. For the positive control of inhibitor, (S)-3-((3S,6S)-3-((2S,3S)-2-acetamido-3-methylpentanamido)-4-oxo-1,2,3,4,6,7-hexahydroazepino[3,2,1-hi]indole-6-carboxamido)-4-oxobutanoic acid (see C. A. Willoughby et al./Bioorg. Med. Chem. Lett. 12 (2002) 2197-2200 2199) was used at 2 uM assay concentration. For no inhibition control, DMSO was used. Each compound was run in duplicate.
Once the compounds were dispensed in the plates, enzyme mix and substrate mix were prepared. Enzyme mix was prepared by preparing a mixture of 300 uL granzyme B (final concentration 8 nM) and 10.8 mL of assay buffer (from Sigma kit). Substrate mix was prepared by combining 500 uL substrate (from Sigma kit) and 3 mL of assay buffer (from Sigma kit). Enzyme mixture was loaded on BioRaptr and 9.25 uL were added to each well of the assay plate containing compounds. The plate was incubated at room temperature under a metal gasket cover for 30 minutes. Subsequently, 3.125 uL of substrate mix were added to each well using the BioRaptr, reaching a final assay volume of 12.5 uL, and the plate was monitored using a Pherastar FS by 1 read per minute for 30 minutes in fluorescence mode, excitation wavelength is 400 nm and emission wavelength is 510 nm.
The data analysis was performed first in excel, where the slopes of the measured fluorescence from each sample were determined using MARS software from BMG LABTECH. These rates were then multiplied by 10,000 for visualization purposes. The rates, multiplied by 10,000, were normalized to 0% and 100% activity based on the average values of the samples with either 2 uM inhibitor (S)-3-((3S,6S)-3-((2S,3S)-2-acetamido-3-methylpentanamido)-4-oxo-1,2,3,4,6,7-hexahydroazepino[3,2,1-hi]indole-6-carboxamido)-4-oxobutanoic acid, or no inhibitor respectively. All samples were then normalized against these values using the formula={100−[(sample−100% inhib)/0% inhib]}*100 to achieve a normalized percent inhibition. Normalized percent inhibition versus concentration inhibitor was then plotted in Graphpad Prism version 9.0.0 and a variable slope (four parameters) fit was calculated for each inhibitor.

The conditions of data set [3]: rhesus monkey, in vivo.
Protocol: Healthy non-human primate: A 3 h dynamic PET/CT scan was performed in a healthy male rhesus monkey to determine whole body biodistribution and clearance properties in an additional species. Approximately 6 mCi of ^18F-labeled anti-granzyme-B peptide was intravenously injected in the animal. Attenuation correction was performed using low-dose CT scan. Regions of interests (ROI) were manually drawn over tissues of interest to determine mean standardized uptake value (SUVmean).
In data set [4] the target is T1, Human Granzyme B. Type of data set: in vivo. Set-up: Ten million human peripheral blood mononuclear cell (PBMC) were engrafted in immunocompromised NOG (NOD/Shi-scid/IL-2Rγ) mice; endogenous in cells; host or cells: human PBMC (donor-derived) engrafted in NOG mice. Here is the method:
Diseased model: Graft versus host disease (GvHD) model was selected to evaluate radiolabeled granzyme-B peptides due to presence of human granzyme-B after onset of disease. Ten million human peripheral blood mononuclear cell (PBMC) were engrafted in immunocompromised NOG (NOD/Shi-scid/IL-2Rγ) mice. Body weight was monitored routinely, once the mice started to lose weight (indication of onset of disease), PET/CT scans were performed. To determine target specificity, NOG mice without human PBMC were used as control. […] Mice were intravenously injected with approximately 150 uCi (35 Ci/mmol) of ^18F-labeled peptides and 45-minute whole body static PET/CT scans were performed 1 h after injection. Attenuation correction was performed using low-dose CT scan.

The target in data set [5] is T2, human Granzyme B (human, UniProt P10144 21-247). As to the kind of experiment: cell-based or functional assay.
T2 sequence (P10144 21-247 limits assumed): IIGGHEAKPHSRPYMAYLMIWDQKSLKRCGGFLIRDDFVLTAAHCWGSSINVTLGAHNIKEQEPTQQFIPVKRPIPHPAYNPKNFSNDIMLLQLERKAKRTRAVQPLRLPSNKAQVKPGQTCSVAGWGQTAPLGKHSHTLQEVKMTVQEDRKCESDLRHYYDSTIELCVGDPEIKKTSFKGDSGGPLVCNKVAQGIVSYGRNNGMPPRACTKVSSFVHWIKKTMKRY
Data set [6] concerns the target T2, human Granzyme B. The data set is described as follows: SPR, Biacore 8k+, hGranzyme B captured on SA chip, single cycle kinetics, 1:1 model; Compound 25a, observed m/z 905.8. Here is the method:
(§1) The kinetics of test peptide binding to human Granzyme B (hGranzyme B) was determined by SPR. All experiments were performed at 25° C. using the Biacore 8k+ instrument (Cytiva, Marlborough, MA). The Biacore 8k+ Insight Evaluation Software Version 3.0 was used to fit the data with a 1:1 binding model to determine the association rate constant kₐ (M⁻¹s⁻¹, where “M” ~equals molar and “s” ~equals seconds) and the dissociation rate constant kd (s⁻¹). These rate constants were used to calculate the equilibrium dissociation constant. KD (M)=kd/kₐ.
(§2) To measure the binding kinetics of peptides of interest, surfaces were prepared by a capture method to a Series S Streptavidin (SA) chip using a 1×HBS-EP+ running buffer (Cytiva). hGranzyme B was diluted to 10 μg/mL in IX HBS-EP+ and flowed over spot 2 of each flow cell on the chip at a flow rate of 10 ul/min for 20 s to achieve a level of capture of ~1100 RU. […] Binding kinetics were measured using single cycle kinetics at 25° C. by injecting 5 concentrations with 3-fold serial dilutions of test peptides from 0.01 μM to 1 μM. […]
(§3) Peptide dilution series included 2 zero concentration points (no compound) which were averaged and subtracted from the peptide concentration injection as DMSO control responses. […] Corrected response data were analyzed using the Biacore 8k+ Evaluation Software Version 3.0 according to the manufacturer. […]

Data set [7] addresses T2, human Granzyme B. As to the kind of experiment: SPR, Biacore 8k+, hGranzyme B captured on SA chip, single cycle kinetics, 1:1 model; Compound 38a, observed m/z 914.7. Here is the method:
as §1, §2, §3

Numbered stars: 1 amine (or outer) side, 2 acyl side, 3 side chain; on linkers, the order of the positions; unused ones are H or OH. Bridge positions count the residues as written; N and C are the ends. Square brackets hold non-standard residues; d marks the D form. Peptide text beside a SMILES is read from it. I, II: the chains in the order shown. Pro(trans-4-F) = O=C(O)[C@@H]1C[C@@H](F)CN1; X2 = O=C(CCOCCOCCC(=O)[*:2])[*:1] A value given as a limit tells only on which side of the number the result lay.

Broadly, the Kd is the free concentration of one partner at which half of the binding sites on the other are occupied at equilibrium, for simple one-to-one binding. The IC50 is the concentration needed to halve the response being measured. High values mean lower potency, low ones higher potency.

T1 sequence (P10144 21-247): as the sequence (P10144 21-247 limits assumed) above

`C[C@@H]1NC(=O)[C@H](CO)NC(=O)[C@H](CCC(N)=O)NC(=O)[C@H](CC(=O)O)NC(=O)[C@H](CCC(=O)O)NC(=O)[C@H](Cc2ccccc2)NC(=O)[C@H](CC(N)=O)NC(=O)[C@H](Cc2ccccc2)NC(=O)CSC[C@@H](C(=O)NCC(=O)NCC(=O)N[C@@H](CCCCNC(=O)CCOCCOCCC(=O)NCCCC[C@H](NC(=O)CNC(=O)CNC(=O)[C@@H]2CSCC(=O)N[C@@H](Cc3ccccc3)C(=O)N[C@@H](CC(N)=O)C(=O)N[C@@H](Cc3ccccc3)C(=O)N[C@@H](CCC(=O)O)C(=O)N[C@@H](CC(=O)O)C(=O)N[C@@H](CCC(N)=O)C(=O)N[C@@H](CO)C(=O)N[C@@H](C)C(=O)N[C@@H](CC(=O)O)C(=O)N[C@@H]([C@@H](C)O)C(=O)N[C@@H](Cc3c[nH]c4ccccc34)C(=O)N[C@@H](CCC(N)=O)C(=O)N3CCC[C@H]3C(=O)N2)C(N)=O)C(N)=O)NC(=O)[C@@H]2CCCN2C(=O)[C@H](CCC(N)=O)NC(=O)[C@H](Cc2c[nH]c3ccccc23)NC(=O)[C@H]([C@@H](C)O)NC(=O)[C@H](CC(=O)O)NC1=O` [Compound 5a, *F.N.F.E.D.Q.S.A.D.T.W.Q.P.*C.G.G.K.NH2)-PEG2-(*F.N.F.E.D.Q.S.A.D.T.W.Q.P.*C.G.G.K.NH2)] (I: {CH2CO}-FNFEDQSADTWQPCGGK-NH2 / II: {CH2CO}-FNFEDQSADTWQPCGGK-NH2; linker I:17-II:17 via X2; thioether I:N-I:14, II:N-II:14): in data set [1], the Kd is under 0.3 nM. The IC50 against Human Granzyme B [2] was under 8 nM.
Regarding `C[C@@H](O)[C@@H]1NC(=O)[C@H](CC(=O)O)NC(=O)[C@@H]2C[C@@H](F)CN2C(=O)[C@H](CO)NC(=O)[C@H](CCC(N)=O)NC(=O)[C@H](CC(=O)O)NC(=O)[C@H](CCC(=O)O)NC(=O)[C@H](Cc2ccccc2)NC(=O)[C@H](CC(N)=O)NC(=O)[C@H](Cc2ccccc2)NC(=O)CSC[C@@H](C(=O)NCC(=O)NCC(=O)N[C@@H](CCCCNC(=S)Nc2ccc(CC3CN(CC(=O)O)CCN(CC(=O)O)CCN3CC(=O)O)cc2)C(N)=O)NC(=O)[C@@H]2CCCN2C(=O)[C@H](CCC(N)=O)NC(=O)[C@H](Cc2c[nH]c3ccccc23)NC1=O` (stereo partly drawn) [Compound 19a, *F.N.F.E.D.Q.S.Prot4F.D.T.W.Q.P.*C.G.G.K(^68Ga-NOTA-1).NH2, metal not drawn], in data set [3], the route of clearance result is given as “primarily cleared through renal excretion”; the “tissues of highest uptake” value was “highest uptake observed in urine/urinary bladder and kidney”.
At Human Granzyme B [2], `C[C@@H](O)[C@@H]1NC(=O)[C@H](CC(=O)O)NC(=O)[C@@H]2C[C@@H](F)CN2C(=O)[C@H](CO)NC(=O)[C@H](CCC(N)=O)NC(=O)[C@H](CC(=O)O)NC(=O)[C@H](CCC(=O)O)NC(=O)[C@H](Cc2ccccc2)NC(=O)[C@H](CC(N)=O)NC(=O)[C@H](Cc2ccccc2)NC(=O)CSC[C@@H](C(=O)NCC(N)=O)NC(=O)[C@@H]2CCCN2C(=O)[C@H](CCC(N)=O)NC(=O)[C@H](Cc2c[nH]c3ccccc23)NC1=O` [Compound 38a, *F.N.F.E.D.Q.S.Prot4F.D.T.W.Q.P.*C.G.NH2] ({CH2CO}-FNFEDQS[Pro(trans-4-F)]DTWQPCG-NH2; thioether N-14) came in with an IC50 of under 8 nM.
As for “*F.N.F.E.D.Q.S.A.D.T.W.Q.P.*C.G.G.K(^18F-AlF-NOTA-1).NH2 [Compound 11a]”, the route of excretion entry in data set [3] was “primarily excreted through renal route”. In data set [3] (iv), the blood pool clearance entry is “rapid blood pool clearance” and the uptake in kidneys entry is listed as “high uptake in kidneys within first 20 minutes of injection”. Besides, the “uptake (SUVmean) in lung, liver and bone, GvHD model versus NOG control” value at Human Granzyme B [4] (18F-labeled peptides, i.v., mice, static PET/CT 1 h after injection) is “significantly higher uptake in lung, liver, and bone in GvHD model than NOG control”. In the data set with Human Granzyme B [4] (in vivo), the “kidney and bladder uptake difference” value is “No significant difference was observed between the kidney and bladder”; the “primary tissue of excretion” value is given as “kidney was the primary tissue through which the peptide was excreted”.

B1: Compound 25a (peptide)
peptide: {CH2CO}-FNFEDQSPDTWQPCG-NH2
modifications: thioether N-14
SMILES: C[C@@H](O)[C@@H]1NC(=O)[C@H](CC(=O)O)NC(=O)[C@@H]2CCCN2C(=O)[C@H](CO)NC(=O)[C@H](CCC(N)=O)NC(=O)[C@H](CC(=O)O)NC(=O)[C@H](CCC(=O)O)NC(=O)[C@H](Cc2ccccc2)NC(=O)[C@H](CC(N)=O)NC(=O)[C@H](Cc2ccccc2)NC(=O)CSC[C@@H](C(=O)NCC(N)=O)NC(=O)[C@@H]2CCCN2C(=O)[C@H](CCC(N)=O)NC(=O)[C@H](Cc2c[nH]c3ccccc23)NC1=O
Turning to B1, in the data set with human Granzyme B [5], the “Human Granzyme B IC50 (fluorogenic substrate enzyme inhibition assay)” value was under 8 nM. Also, the Kd with human Granzyme B [6] came out at 2.8 nM.

B2: Compound 38a (peptide)
peptide: {CH2CO}-FNFEDQS[Pro(trans-4-F)]DTWQPCG-NH2
modifications: thioether N-14
SMILES: C[C@@H](O)[C@@H]1NC(=O)[C@H](CC(=O)O)NC(=O)[C@@H]2C[C@@H](F)CN2C(=O)[C@H](CO)NC(=O)[C@H](CCC(N)=O)NC(=O)[C@H](CC(=O)O)NC(=O)[C@H](CCC(=O)O)NC(=O)[C@H](Cc2ccccc2)NC(=O)[C@H](CC(N)=O)NC(=O)[C@H](Cc2ccccc2)NC(=O)CSC[C@@H](C(=O)NCC(N)=O)NC(=O)[C@@H]2CCCN2C(=O)[C@H](CCC(N)=O)NC(=O)[C@H](Cc2c[nH]c3ccccc23)NC1=O
Turning to B2, in the data set with human Granzyme B [5], the “Human Granzyme B IC50 (fluorogenic substrate enzyme inhibition assay)” value was under 8 nM. This molecule also returned a Kd in the data set with human Granzyme B [7] of 0.7 nM.
